B1: AM14 (trimeric prefusion specific antibody of the AM14 ELISA) (antibody, V domains shown)
VH: EVQLVESGGGVVQPGRSLRLSCAASGFSFSHYAMHWVRQAPGKGLEWVAVISYDGENTYYADSVKGRFSISRDNSKNTVSLQMNSLRPEDTALYYCARDRIVDDYYYYGMDVWGQGATVTVSS
VL: DIQMTQSPSSLSASVGDRVTITCQASQDIKKYLNWYHQKPGKVPELLMHDASNLETGVPSRFSGRGSGTDFTLTISSLQPEDIGTYYCQQYDNLPPLTFGGGTKVEIKR
notes: Antibody as used in the AM14 ELISA, detected with an HRP-labeled secondary antibody

Experiments:
[1] = molecular target: RSV A + RSV B bivalent composition (RSV subtype A; RSV subtype B); assay: AM14 Fab titration by SEC; Target cycle; 3 M 2-8°C (second value)
[2] = molecular target: RSV A + RSV B bivalent composition (RSV subtype A; RSV subtype B); assay: AM14 Fab titration by SEC; High-Slow 2 cycle; T0
[3] = molecular target: RSV A + RSV B bivalent composition (RSV subtype A; RSV subtype B); assay: AM14 Fab titration by SEC; composition of Table 14; pre-lyo composition
[4] = molecular target: RSV A + RSV B bivalent composition (RSV subtype A; RSV subtype B); assay: AM14 Fab titration by SEC; High-Slow 1 cycle; 1 M 40°C
[5] = molecular target: RSV A + RSV B bivalent composition (RSV subtype A; RSV subtype B); assay: AM14 Fab titration by SEC; High-Slow 2 cycle; 1 M 25°C
[6] = molecular target: RSV A + RSV B bivalent composition (RSV subtype A; RSV subtype B); assay: AM14 Fab titration by SEC; Low-Fast cycle; 3 M 2-8°C (second value)
[7] = molecular target: RSV A + RSV B bivalent composition (RSV subtype A; RSV subtype B); assay: AM14 Fab titration by SEC; High-Slow 1 cycle; 1 M 2-8°C (second value)
[8] = molecular target: RSV A + RSV B bivalent composition (RSV subtype A; RSV subtype B); assay: AM14 Fab titration by SEC; Low-Fast cycle; 3 M 40°C (second value)
[9] = molecular target: T1, RSV F protein of subtype A comprising a polypeptide of SEQ ID NO: 1 and a polypeptide of SEQ ID NO: 2 (RSV subtype A, UniProt P11209 137-513; P03420 26-109); assay: AM14 ELISA; F7 (pH 6, 100 mM NaCl, 0% sucrose); 2 wk 25°C
T1 construct: Stabilized prefusion F trimer made of three F2-F1 heterodimers; Produced recombinantly in CHO cells; also called RSV A; RSVA
T1 chain 1: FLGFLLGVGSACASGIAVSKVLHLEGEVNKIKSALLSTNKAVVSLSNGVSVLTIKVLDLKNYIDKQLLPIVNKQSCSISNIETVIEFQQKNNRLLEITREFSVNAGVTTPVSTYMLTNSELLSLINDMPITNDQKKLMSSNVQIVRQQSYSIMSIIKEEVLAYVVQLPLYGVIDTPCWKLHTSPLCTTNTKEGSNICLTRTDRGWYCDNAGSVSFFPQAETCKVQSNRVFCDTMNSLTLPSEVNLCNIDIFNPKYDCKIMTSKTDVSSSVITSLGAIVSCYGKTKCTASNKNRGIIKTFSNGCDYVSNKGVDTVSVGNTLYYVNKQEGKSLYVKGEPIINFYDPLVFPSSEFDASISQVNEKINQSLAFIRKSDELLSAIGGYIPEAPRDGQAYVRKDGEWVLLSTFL
T1 chain 2: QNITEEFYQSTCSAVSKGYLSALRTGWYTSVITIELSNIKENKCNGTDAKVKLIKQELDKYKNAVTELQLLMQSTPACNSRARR

[10] = molecular target: T1, RSV F protein of subtype A comprising a …; assay: AM14 ELISA; F8 (pH 7, 50 mM NaCl, 0% sucrose); 1 wk 25°C
[11] = molecular target: T1, RSV F protein of subtype A comprising a …; assay: AM14 ELISA; F5 (pH 6, 100 mM NaCl, 9.0% sucrose); 1 wk 5°C
[12] = molecular target: T1, RSV F protein of subtype A comprising a …; assay: AM14 ELISA; F14 (pH 7, 50 mM NaCl, 4.5% sucrose); 2 wk 25°C
[13] = molecular target: T1, RSV F protein of subtype A comprising a …; assay: AM14 ELISA; F16 (pH 6, 0 mM NaCl, 0% sucrose); 1 wk 25°C
[14] = molecular target: T1, RSV F protein of subtype A comprising a …; assay: AM14 ELISA; F14 (pH 7, 50 mM NaCl, 4.5% sucrose); T0
[15] = molecular target: T1, RSV F protein of subtype A comprising a …; assay: AM14 ELISA; F7 (pH 6, 100 mM NaCl, 0% sucrose); 1 wk 5°C
[16] = molecular target: T1, RSV F protein of subtype A comprising a …; assay: AM14 ELISA; F18 (pH 7, 50 mM NaCl, 3% sucrose + 3% mannitol); 2 wk 25°C
[17] = molecular target: T1, RSV F protein of subtype A comprising a …; assay: AM14 ELISA; F3 (pH 8, 0 mM NaCl, 9% sucrose); 1 wk 25°C
[18] = molecular target: T1, RSV F protein of subtype A comprising a …; assay: AM14 ELISA; F7 (pH 6, 100 mM NaCl, 0% sucrose); 1 wk 25°C

Molecule	Prefusion Content (%) [1] [%]	Prefusion Content (%) [2] [%]	Prefusion Content (%) [3] [%]	Prefusion Content (%) [4] [%]	Prefusion Content (%) [5] [%]	Prefusion Content (%) [6] [%]	Prefusion Content (%) [7] [%]	Prefusion Content (%) [8] [%]	AM14 prefusion content (%), relative to standard [9] [%]	AM14 prefusion content (%), relative to standard [10] [%]	AM14 prefusion content (%), relative to standard [11] [%]	AM14 prefusion content (%), relative to standard [12] [%]	AM14 prefusion content (%), relative to standard [13] [%]	AM14 prefusion content (%), relative to standard [14] [%]	AM14 prefusion content (%), relative to standard [15] [%]	AM14 prefusion content (%), relative to standard [16] [%]	AM14 prefusion content (%), relative to standard [17] [%]	AM14 prefusion content (%), relative to standard [18] [%]
AM14 Fab	70	61	77	51	72	59	44	66										
B1									55	86	78	78	87	102	61	78	81	75

Reference: patent US20260097113A1 (Pfizer, published 2026)
